Source: PMC9838217, “Structure of SALL4 zinc finger domain reveals link between AT-rich DNA binding and Okihiro syndrome”

How the values were obtained:
Settings in all cases: protein: recombinant; tags: His6-GST removed with 3C protease; label: DY681
[1] = target: T1, SALL4 ZFC4 V925S (Mus musculus, UniProt Q8BX22 870-940, V925S); experiment: EMSA; apparent; poly(dI-dC); EMSA: 68.1 nM DY681-dsDNA, 20 mM HEPES pH 7.5, 150 mM K acetate, 5 mM Mg acetate, 10 ng/ul poly(dI-dC), 30 min on ice; 4% native PAGE, 0.5x TBE, 4 C
T1 sequence: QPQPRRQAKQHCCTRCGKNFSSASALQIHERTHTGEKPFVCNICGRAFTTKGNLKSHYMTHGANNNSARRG

[2] = target: T2, SALL4 ZFC4 R900W (Mus musculus, UniProt Q8BX22 870-940, R900W); experiment: as above
T2 sequence: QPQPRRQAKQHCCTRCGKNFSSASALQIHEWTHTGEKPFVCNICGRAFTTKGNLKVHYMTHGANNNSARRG

[3] = target: T3, SALL4 ZFC4 I897S (Mus musculus, UniProt Q8BX22 870-940, I897S); experiment: as above
T3 sequence: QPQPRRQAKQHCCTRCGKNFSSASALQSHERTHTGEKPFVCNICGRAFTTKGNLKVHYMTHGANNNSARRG

[4] = target: T4, SALL4 ZFC4 I897S+V925S (Mus musculus, UniProt Q8BX22 870-940, I897S;V925S); experiment: EMSA; apparent; text gives 5.0; poly(dI-dC); EMSA: 68.1 nM DY681-dsDNA, 20 mM HEPES pH 7.5, 150 mM K acetate, 5 mM Mg acetate, 10 ng/ul poly(dI-dC), 30 min on ice; 4% native PAGE, 0.5x TBE, 4 C
T4 sequence: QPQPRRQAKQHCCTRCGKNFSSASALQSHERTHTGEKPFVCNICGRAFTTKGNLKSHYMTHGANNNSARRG

B1: EMSA AT-rich probe (dsDNA)
DNA 1: AAAAAATATTAAAAA
DNA 2: TTTTTAATATTTTTT
[1]
  Kd: 0.91 µM
[2]
  Kd: 23 µM
[3]
  Kd: 4.8 µM
[4]
  Kd: 5.08 µM
